Experimental data published in patent publication US20230174624A1, “FERRITIN VARIANTS WITH INCREASED STABILITY, COMPLEXATION ABILITY AND TRANSFERRIN RECEPTOR AFFINITY” (CELLIS AG, priority 2020, published 2023).
“Also recorded” adds a separate entry of the source.

What was measured:
[1] = Native PAGE gel after doxorubicin encapsulation and purification; assay type: physicochemical; settings: ferritin-dox after encapsulation, concentrated on 10 or 100 kDa Amicon
From the text: Native PAGE gel has been performed in order to check the size of the protein after encapsulation and purification.

[2] = biological target: TfR1 (Homo sapiens, UniProt P02786); assay: Surface plasmon resonance binding of ferritin to immobilized his-tagged TFRC receptor
TfR1, sequence (P02786 whole entry, species assumed): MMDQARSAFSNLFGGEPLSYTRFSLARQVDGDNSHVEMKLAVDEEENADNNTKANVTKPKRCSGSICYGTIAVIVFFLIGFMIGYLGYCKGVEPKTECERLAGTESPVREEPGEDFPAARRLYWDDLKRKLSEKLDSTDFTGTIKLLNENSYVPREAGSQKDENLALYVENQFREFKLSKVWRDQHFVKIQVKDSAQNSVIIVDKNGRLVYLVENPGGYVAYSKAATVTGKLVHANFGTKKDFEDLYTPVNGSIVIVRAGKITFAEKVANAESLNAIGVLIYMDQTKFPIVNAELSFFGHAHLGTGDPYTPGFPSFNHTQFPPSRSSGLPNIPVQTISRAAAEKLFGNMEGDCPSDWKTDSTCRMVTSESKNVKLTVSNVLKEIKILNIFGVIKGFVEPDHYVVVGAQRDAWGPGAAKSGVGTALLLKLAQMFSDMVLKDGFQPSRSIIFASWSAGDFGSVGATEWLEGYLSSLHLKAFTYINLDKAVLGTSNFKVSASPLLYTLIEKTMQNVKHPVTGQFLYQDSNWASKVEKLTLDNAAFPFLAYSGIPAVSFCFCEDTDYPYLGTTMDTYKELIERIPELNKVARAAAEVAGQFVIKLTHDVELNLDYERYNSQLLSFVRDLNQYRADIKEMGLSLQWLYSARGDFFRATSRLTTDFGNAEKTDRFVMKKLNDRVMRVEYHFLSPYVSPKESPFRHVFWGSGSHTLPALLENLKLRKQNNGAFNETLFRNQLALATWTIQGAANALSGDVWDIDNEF
Protocol: FIG. 2: Sensorgrams corresponding to the interaction between the immobilized his-tagged TFRC receptor and human ferritin. Panel A: mutant Q11E, panel B: wild type. X-axis: time (s). The same amount of receptor was trapped onto the chip surface (see methods section for details). Five different analyte concentrations (0.0625, 0.125, 0.250, 0.5 and 1 mg/ml) were used. For all analyte concentrations measured, the amount of ferritin bound is higher for the Q11E mutant than for wild-type ferritin.
Binding of wild type and Q11E mutant ferritin to TfR1 was analysed by surface plasmon resonance.

[3] = Native gel after storage in a freezer (-80 degrees Celsius) and thawing; assay type: physicochemical; settings: ferritin-dox
[4] = system: siRNA; assay: siRNA association with ferritin (gel); assay type: binding
Protocol: 1 ml reaction containing 2 mg Ft and 4 ug siRNA in DPBS, pH lowered to values as indicated (2.5, 3.2, 4.4, 5.6 and 6.8, respectively). Samples were incubated 15 min in RT, then NaOH was added to adjust pH to neutral (pH 7). Non-associated free siRNA was removed by 4 centrifugation steps on Amicons with 100 kDa cut-off.

[5] = system: breast and ovarian cancer cell lines: MDA-MB 231, Skov3 and 4T1; assay: Tumour cell viability after co-culture with macrophages carrying doxorubicin packed ferritin; assay type: cell-based; settings: 72 h co-culture with macrophages, ferritin cages filled with doxorubicin 1 mg/ml
Protocol: FIG. 7: Graphs of tumour cell viability after 72 h co-culture with macrophages. The concentration of ferritin cages filled with doxorubicin was the same for each variant of ferritin and was equal to 1 mg/ml.
In vitro experiments have shown that ferritin mutants reveal better cytotoxicity against tumor cells. The doxorubicin packed proteins were inserted into macrophages and then co-cultured with breast and ovarian cancer cell lines: MDA-MB 231, Skov3 and 4T1. The number of viable cells after co-culture was the lowest for the Q11E-Q15E mutant (FIG. 7).

binding affinity to the CD71 receptor relative to wild type [2] | rate of release from its complex with CD71 receptor [2] | KD ([2]; global fit, simple 1:1 binding mode, versus wild type) | amount of ferritin bound ([2]; versus wild-type ferritin, analyte 0.0625-1 mg/ml) | Substance | forms on native gel (24-mers versus aggregates) [1] | stability of cages after storage [3] | association with siRNA ([4]; incubated in pH 2.4 and 3.2) | association with siRNA ([4]; incubated in pH range 4.4 to 6.8) | number of viable cells after co-culture [5]
at least fourfold | slow rate of release | lower KD value | higher | Q11E: human H ferritin mutant Q11E (TRBD SEQ ID NO. 05); in examples 3-8 also K54E, K72E, K87Q, K144E, C91S, C103S, C131S (MTTASTSQVRENYHQDSEAA; listed as Homo sapiens) | present as 24-mers (homogeneous cages) | still present as 24-mers (homogeneous cages) after storage; also recorded: reduces the presence of aggregates and allows the storage of ferritin cages with doxorubicin in the freezer | not | associated with siRNA | –
– | – | – | – | Q11E-Q15E: human H ferritin mutant Q11E Q15E (TRBD SEQ ID NO. 12); in examples 3-8 also K54E, K72E, K87Q, K144E, C91S, C103S (MTTASTSQVRENYHEDSEAA; listed as Homo sapiens) | present as 24-mers (homogeneous cages) | still present as 24-mers (homogeneous cages) after storage | – | – | lowest
